Laboratory results as given in patent US20040110933A1.

Tests used:
[1] = molecular target: biotinylated CD44Fc (human) (UniProt P16070); test: phage ELISA on b-CD44Fc, no competitor
[2] = molecular target: biotinylated CD44Fc (human) (UniProt P16070); test: competition phage ELISA on b-CD44Fc, competitor S5 (450 ng) pre-incubated

B1: BE-A11 (Fab displayed on phage) (Fab, V domains shown)
VH: EVQLLESGGGLVQPGGSLRLSCAASGFTFSKYSMEWVRQAPGKGLEWVSRIYPSGGPTLYADSVKGRFTISRDNSKNTLYLQMNSLRAEDTAVYYCARDSYGMDVWGQGTTVTVSS
VL: QSVLTQPASVSGSPGQSITISCTGTSSDVGGYSYVSWYQQHPGKAPKLMIYEVSNRPSGVSNRFSGSKSGNTASLTISGLQAEDEADYYCNSYTSSSTKMFGGGTRLTVL
phage ELISA signal (column CD44) [1]: 1.08 | phage ELISA signal (column CD44 + S5) [2]: 0.261
